Measured values taken from patent US20170283479.

Experiments:
[1] = biological target: analogs where the A-chain is derived from the sequence of IGF-1
[2] = biological target: insulin analogs where the A-chain is derived from the native insulin sequence

B1: rDNA rat insulin-specific degrading enzyme (IDE) (protein)
chain: MNNPAIQRIEDHIVKSPEDKREYRGLELANGIKVLLISDPTTDKSSAALDVHIGSLSDPPNIPGLSHFCEHMLFLGTKKYPKENEYSQFLSEHAGSSNAFTSGEHTNYYFDVSHEHLEGALDRFAQFFLCPLFDASCKDREVNAVDSEHEKNVMNDAWRLFQLEKATGNPKHPFSKFGTGNKYTLETRPNQEGIDVREELLKFHSTYYSSNLMAICVLGRESLDDLTNLVVKLFSEVENKNVPLPEFPEHPFQEEHLKQLYKIVPIKDIRNLYVTFPIPDLQQYYKSNPGHYLGHLIGHEGPGSLLSELKSKGWVNTLVGGQKEGARGFMFFIINVDLTEEGLLHVEDIILHMFQYIQKLRAEGPQEWVFQECKDLNAVAFRFKDKERPRGYTSKIAGKLHYYPLNGVLTAEYLLEEFRPDLIDMVLDKLRPENVRVAIVSKSFEGKTDRTEQWYGTQYKQEAIPEDVIQKWQNADLNGKFKLPTKNEFIPTNFEILALEKDATPYPALIKDTAMSKLWFKQDDKFFLPKACLNFEFFSPFAYVDPLHCNMAYLYLELLKDSLNEYAYAAELAGLSYDLQNTIYGMYLSVKGYNDKQPILLKKITEKMATFEIDKKRFEIIKEAYMRSLNNFRAEQPHQHAMYYLRLLMTEVAWTKDELKEALDDVTLPRLKAFIPQLLSRLHIEALLHGNITKQAALGVMQMVEDTLIEHAHTKPLLPSQLVRYREVQLPDRGWFVYQRRNEVHNNCGIEIYYQTDMQSTSENMFLELFCQIISEPCFNTLRTKEQLGYIVFSGPRRANGIQGLRFIIQSEKPPHYLESRVEAFLITMEKAIEDMTEEAFQKHIQALAIRRLDKPKKLSAECAKYWGEIISQQYNYDRDNIEVAYLKTLSKDDIIKFYKEMLAVDAPRRHKVSVHVLAREMDSCPVVGEFPSQNDINLSEAPPLPQPEVIHNMTEFKRGLPLFPLVKPHINFMAAKL
cleavage by IDE (HPLC and residual insulin receptor phosphorylation activity) [1]: appear to be extremely resistant to proteolysis | cleavage by IDE (HPLC and residual insulin receptor phosphorylation activity) [2]: extremely robust and easily detected
